The text below walks through data of patent EP4306640A1.

In this experiment the target is human CXCR4 (C-X-C chemokine receptor type 4), endogenous on human leukemia cell lines (human) (UniProt P61073). Briefly: cell-based or functional assay.
Sequence of UniProt P61073 (P61073 whole entry): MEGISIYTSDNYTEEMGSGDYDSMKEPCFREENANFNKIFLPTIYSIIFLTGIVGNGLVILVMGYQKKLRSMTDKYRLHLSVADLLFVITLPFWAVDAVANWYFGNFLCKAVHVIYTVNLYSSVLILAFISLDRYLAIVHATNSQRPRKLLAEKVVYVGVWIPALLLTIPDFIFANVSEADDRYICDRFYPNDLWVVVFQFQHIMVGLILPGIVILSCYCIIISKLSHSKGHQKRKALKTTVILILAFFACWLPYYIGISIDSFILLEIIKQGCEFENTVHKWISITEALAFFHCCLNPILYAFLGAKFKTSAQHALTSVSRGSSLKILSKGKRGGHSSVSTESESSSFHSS

Regarding human CXCL12α (ligand), the stimulation of migration of BV-173 cells (chemotaxis assay), half-maximal stimulation came to 3 nM; the stimulation of migration of Jurkat cells (chemotaxis assay), half-maximal stimulation was found to be 0.3 nM; the stimulation of migration of Nalm-6 cells (chemotaxis assay), half-maximal stimulation was determined as 0.3 nM; the stimulation of migration of U937 cells (chemotaxis assay), half-maximal stimulation turned out to be 3 nM.
